Columns and labels:
human VEGFR2-Fc [1] = target: T1, human VEGFR2-Fc (human, UniProt P35968 20-764); assay: blocking ELISA, hVEGFR2-Fc binding to coated hVEGF
T1 construct: also called hVEGFR2; recombinant human VEGFR2

mouse VEGFR2-Fc [2] = target: T2, mouse VEGFR2-Fc (mouse, UniProt P35918 20-762); assay: blocking ELISA, mVEGFR2-Fc binding to coated mVEGF
T2 construct: also called mVEGFR2; recombinant mouse VEGFR2

human VEGFR2-Fc [3] = target: T1, human VEGFR2-Fc; assay: dose response ELISA, antigen-Fc coated, HRP anti-human Fab
mouse VEGFR2-Fc [4] = target: T2, mouse VEGFR2-Fc; assay: as above
[5] = target: T3, human VEGFR2 expressed on KDR-PAE cells (human, UniProt P35968 20-1356); assay: flow cytometry on KDR-PAE cells
T3 construct: whole, on cells; also called PAE-KDR; KDR-PAE (hVEGFR2)

human VEGFR2-Fc [6] = target: T1, human VEGFR2-Fc; assay: SPR (Biacore), hVEGFR-Fc immobilized on CM5, antibody injected, 1:1 Langmuir
human PDL1-Fc [7] = target: T4, human PDL1-Fc (human, UniProt Q9NZQ7 19-238); assay: SPR (Biacore), hPDL1-Fc immobilized on CM5, antibody injected, 1:1 Langmuir
T4 construct: also called hPDL1; hPDLl

mouse PDL1-Fc [8] = target: T5, mouse PDL1-Fc (mouse, UniProt Q9EP73 19-239, limits assumed); assay: blocking ELISA, biotin mPDL1-Fc binding to immobilized mPD1
T5 construct: also called mPDL1; mPDLl

mouse PDL1-Fc [9] = target: T5, mouse PDL1-Fc; assay: dose response ELISA, antigen-Fc coated, HRP anti-human Fab
human PDL1-Fc [10] = target: T4, human PDL1-Fc; assay: as above
human PDL1-Fc [11] = target: T4, human PDL1-Fc; assay: blocking ELISA, biotin hPDL1-Fc binding to immobilized hPD1
[12] = target: T6, mouse PDL1 expressed on B16-F10 cells (mouse, UniProt Q9EP73 19-290); assay: flow cytometry on B16-F10 cells
T6 construct: whole, on cells; also called B16-F10 (mPDLl); cell expressed mouse PDL1

[13] = target: T7, human PDL1 expressed on MDA-MB-231 cells (human, UniProt Q9NZQ7 19-290); assay: flow cytometry on MDA-MB-231 cells
T7 construct: whole, on cells; also called cell expressed human PDL1

human VEGFR2-Fc [14] = target: T1, human VEGFR2-Fc; assay: binding assay as in Example 2 (Figure 42)
human PDL1-Fc [15] = target: T4, human PDL1-Fc; assay: binding assay as in Example 2 (Figure 42)

T3 sequence (P35968 20-1356): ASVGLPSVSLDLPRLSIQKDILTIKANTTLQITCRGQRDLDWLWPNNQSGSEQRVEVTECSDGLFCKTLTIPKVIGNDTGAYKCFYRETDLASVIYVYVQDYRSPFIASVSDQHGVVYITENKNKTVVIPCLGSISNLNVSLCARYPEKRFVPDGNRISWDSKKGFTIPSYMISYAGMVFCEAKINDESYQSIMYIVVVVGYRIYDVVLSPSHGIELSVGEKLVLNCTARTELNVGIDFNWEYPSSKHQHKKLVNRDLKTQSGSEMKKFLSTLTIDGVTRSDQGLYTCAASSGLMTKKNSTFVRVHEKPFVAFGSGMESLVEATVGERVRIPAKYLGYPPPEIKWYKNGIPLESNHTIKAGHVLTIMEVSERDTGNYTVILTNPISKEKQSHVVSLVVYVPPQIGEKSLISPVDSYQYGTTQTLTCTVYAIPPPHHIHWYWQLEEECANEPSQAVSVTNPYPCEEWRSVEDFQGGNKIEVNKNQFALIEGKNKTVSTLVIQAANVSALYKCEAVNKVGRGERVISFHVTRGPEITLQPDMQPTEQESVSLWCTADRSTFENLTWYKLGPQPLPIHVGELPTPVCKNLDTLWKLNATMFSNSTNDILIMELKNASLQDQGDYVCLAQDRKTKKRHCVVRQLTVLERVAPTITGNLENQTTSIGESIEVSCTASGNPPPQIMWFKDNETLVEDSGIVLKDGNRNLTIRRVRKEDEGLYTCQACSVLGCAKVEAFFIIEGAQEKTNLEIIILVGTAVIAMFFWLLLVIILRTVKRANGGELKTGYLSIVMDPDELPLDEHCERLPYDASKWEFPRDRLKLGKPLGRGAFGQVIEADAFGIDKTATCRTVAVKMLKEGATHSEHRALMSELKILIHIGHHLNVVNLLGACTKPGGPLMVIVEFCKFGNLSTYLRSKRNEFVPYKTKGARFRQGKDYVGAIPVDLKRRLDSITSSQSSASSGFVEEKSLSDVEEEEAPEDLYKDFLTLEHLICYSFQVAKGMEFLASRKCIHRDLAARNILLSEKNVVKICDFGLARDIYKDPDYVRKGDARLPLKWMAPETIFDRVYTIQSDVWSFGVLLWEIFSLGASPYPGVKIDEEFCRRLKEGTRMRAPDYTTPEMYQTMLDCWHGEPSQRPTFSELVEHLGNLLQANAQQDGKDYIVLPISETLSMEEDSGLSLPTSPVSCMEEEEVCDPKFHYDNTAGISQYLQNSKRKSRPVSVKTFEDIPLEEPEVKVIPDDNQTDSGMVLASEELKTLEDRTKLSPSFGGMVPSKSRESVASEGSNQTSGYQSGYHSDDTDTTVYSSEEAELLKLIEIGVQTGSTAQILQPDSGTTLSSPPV
T1 sequence (P35968 20-764 limits assumed): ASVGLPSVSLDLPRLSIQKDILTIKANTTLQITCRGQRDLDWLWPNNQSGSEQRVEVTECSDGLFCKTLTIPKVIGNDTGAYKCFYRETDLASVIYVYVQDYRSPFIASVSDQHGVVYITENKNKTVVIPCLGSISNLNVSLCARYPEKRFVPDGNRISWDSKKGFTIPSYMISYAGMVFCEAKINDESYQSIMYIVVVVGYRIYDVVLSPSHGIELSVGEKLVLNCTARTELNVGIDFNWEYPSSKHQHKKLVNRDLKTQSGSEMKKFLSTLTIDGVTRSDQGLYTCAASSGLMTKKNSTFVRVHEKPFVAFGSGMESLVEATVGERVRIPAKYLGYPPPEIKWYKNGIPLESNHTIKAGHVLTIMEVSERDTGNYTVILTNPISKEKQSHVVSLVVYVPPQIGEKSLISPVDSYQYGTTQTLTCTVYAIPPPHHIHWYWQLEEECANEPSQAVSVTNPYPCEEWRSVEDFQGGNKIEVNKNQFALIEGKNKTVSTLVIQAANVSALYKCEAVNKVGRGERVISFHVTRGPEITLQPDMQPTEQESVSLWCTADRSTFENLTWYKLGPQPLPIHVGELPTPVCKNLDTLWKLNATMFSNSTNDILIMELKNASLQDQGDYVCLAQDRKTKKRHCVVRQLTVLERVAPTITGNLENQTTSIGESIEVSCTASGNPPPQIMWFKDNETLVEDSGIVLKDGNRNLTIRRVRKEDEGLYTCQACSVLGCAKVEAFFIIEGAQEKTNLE
T2 sequence (P35918 20-762 limits assumed): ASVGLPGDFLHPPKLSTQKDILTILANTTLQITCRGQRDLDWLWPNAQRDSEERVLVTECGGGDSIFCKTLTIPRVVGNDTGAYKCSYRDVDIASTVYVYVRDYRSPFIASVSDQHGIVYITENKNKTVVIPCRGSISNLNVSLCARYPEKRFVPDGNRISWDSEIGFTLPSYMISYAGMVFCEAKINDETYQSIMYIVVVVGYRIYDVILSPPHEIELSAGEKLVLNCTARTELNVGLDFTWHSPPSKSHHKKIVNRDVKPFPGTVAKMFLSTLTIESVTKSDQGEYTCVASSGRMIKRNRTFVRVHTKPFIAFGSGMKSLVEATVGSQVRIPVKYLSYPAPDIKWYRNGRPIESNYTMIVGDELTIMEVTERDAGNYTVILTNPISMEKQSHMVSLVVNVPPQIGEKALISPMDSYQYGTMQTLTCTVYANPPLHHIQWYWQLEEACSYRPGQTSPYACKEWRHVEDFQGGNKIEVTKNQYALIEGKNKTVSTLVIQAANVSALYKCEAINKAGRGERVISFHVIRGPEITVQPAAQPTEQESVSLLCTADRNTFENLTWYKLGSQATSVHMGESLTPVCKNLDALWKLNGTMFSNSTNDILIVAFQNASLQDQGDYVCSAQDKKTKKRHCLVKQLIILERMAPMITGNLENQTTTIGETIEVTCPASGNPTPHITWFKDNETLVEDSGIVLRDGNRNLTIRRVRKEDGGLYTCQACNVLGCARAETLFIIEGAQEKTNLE
T5 sequence (Q9EP73 19-239 limits assumed): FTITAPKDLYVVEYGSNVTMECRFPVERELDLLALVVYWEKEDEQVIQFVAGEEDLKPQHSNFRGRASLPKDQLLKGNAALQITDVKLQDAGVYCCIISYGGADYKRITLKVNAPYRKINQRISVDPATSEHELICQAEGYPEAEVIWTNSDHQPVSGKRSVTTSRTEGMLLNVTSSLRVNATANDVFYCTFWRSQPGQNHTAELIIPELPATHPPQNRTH
T4 sequence (Q9NZQ7 19-238 limits assumed): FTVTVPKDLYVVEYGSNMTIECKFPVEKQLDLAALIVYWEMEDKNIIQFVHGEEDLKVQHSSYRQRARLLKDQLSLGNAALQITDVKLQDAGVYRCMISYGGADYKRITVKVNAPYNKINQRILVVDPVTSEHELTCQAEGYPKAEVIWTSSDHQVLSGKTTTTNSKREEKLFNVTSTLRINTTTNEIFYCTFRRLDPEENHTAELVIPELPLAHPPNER
T7 sequence (Q9NZQ7 19-290): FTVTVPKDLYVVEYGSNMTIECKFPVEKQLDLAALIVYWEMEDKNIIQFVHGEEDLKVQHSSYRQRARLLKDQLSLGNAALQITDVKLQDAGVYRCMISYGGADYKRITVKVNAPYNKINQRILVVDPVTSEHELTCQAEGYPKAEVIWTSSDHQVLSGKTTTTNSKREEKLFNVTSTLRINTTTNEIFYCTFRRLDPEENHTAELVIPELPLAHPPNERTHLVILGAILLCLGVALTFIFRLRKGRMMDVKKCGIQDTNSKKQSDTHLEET

B1: B1C4A7 (antibody, human IgG1, kappa, V domains shown)
VH: EVQLLESGGGLVQPGGSLRLSCAASGFTFSWYVMGWVRQAPGKGLEWVSSIYPQGGATSYADSVKGRFTISRDNSKNTLYLQMNSLRAEDTAVYYCARGNYFDYWGQGTLVTVSS
VL: DIQMTQSPGTLSLSPGEGATLSCRASQSVSSNYFGWYQQKPGQAPRLLIYGASSRATGIPDRFSGSGSGTDFTLTISRLEPEDSAVYYCQQFDSLPLTFGGGTKVEIKR
notes: Parental mono-specific anti-VEGFR2 IgG1; also called anti-VEGFR2 antibody B1C4A7
For B1, the IC50 (human VEGFR2-Fc [1]) was 1.72 nM, the IC50 (mouse VEGFR2-Fc [2]) was 0.973 nM and the EC50 (human VEGFR2-Fc [3]) was 0.107 nM. It also gave an EC50 (mouse VEGFR2-Fc [4]) of 0.466 nM, an EC50 [5] of 0.522 nM and a Kd (human VEGFR2-Fc [6]) of 0.052 nM.

B2: BsAb (A7-A8)-LALA (bispecific antibody, human IgG1, kappa)
heavy: not shown
light: DIQMTQSPGTLSLSPGEGATLSCRASQSVSSNYFGWYQQKPGQAPRLLIYGASSRATGIPDRFSGSGSGTDFTLTISRLEPEDSAVYYCQQFDSLPLTFGGGTKVEIKRTVAAPSVFIFPPSDEQLKSGTASVVCLLNNFYPREAKVQWKVDNALQSGNSQESVTEQDSKDSTYSLSSTLTLSKADYEKHKVYACEVTHQGLSSPVTKSFNRGEC
notes: LALA version: leucines 234 and 235 of the IgG1 CH2 mutated to alanine; also called bi-specific antibody A7-A8
Binder B2 has an IC50 (human VEGFR2-Fc [1]) of 1.29 nM, a Kd (human PDL1-Fc [7]) of roughly 0.0012 nM and an IC50 (mouse PDL1-Fc [8]) of 5.59 nM. It also gave an IC50 (mouse VEGFR2-Fc [2]) of 0.801 nM, an EC50 (mouse PDL1-Fc [9]) of 0.137 nM and an EC50 (human VEGFR2-Fc [3]) of 0.128 nM. It also gave an EC50 (mouse VEGFR2-Fc [4]) of 0.598 nM, an EC50 (human PDL1-Fc [10]) of 0.079 nM and an EC50 [5] of 0.533 nM. It also gave an IC50 (human PDL1-Fc [11]) of 2.51 nM, a Kd (human VEGFR2-Fc [6]) of roughly 0.047 nM and an EC50 [12] of 0.122 nM. For the same binder, the EC50 [13] was 0.223 nM.

B3: BsAb (A11-B1A1) (bispecific antibody, human IgG1, kappa, L234A L235A)
heavy: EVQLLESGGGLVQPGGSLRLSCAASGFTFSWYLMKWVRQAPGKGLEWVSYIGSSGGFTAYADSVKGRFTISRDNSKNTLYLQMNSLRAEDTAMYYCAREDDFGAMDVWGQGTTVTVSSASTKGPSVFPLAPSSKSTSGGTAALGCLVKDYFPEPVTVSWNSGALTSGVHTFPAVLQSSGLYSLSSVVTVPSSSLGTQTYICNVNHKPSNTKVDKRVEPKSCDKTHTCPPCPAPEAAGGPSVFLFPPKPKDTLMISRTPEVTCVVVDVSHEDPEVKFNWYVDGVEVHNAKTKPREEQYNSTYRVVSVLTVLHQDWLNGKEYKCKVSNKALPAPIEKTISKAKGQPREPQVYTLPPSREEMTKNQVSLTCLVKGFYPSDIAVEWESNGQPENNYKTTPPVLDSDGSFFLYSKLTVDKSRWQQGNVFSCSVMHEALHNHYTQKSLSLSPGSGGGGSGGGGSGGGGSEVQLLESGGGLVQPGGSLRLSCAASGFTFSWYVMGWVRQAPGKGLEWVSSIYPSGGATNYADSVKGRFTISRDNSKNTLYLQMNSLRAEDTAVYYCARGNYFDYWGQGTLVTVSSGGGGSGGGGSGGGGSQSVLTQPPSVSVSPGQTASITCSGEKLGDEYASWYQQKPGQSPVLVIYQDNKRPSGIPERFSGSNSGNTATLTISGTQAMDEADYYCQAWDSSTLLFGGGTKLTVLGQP
light: DIQMTQSPSSLSASVGDRVTITCRASQTVSKYFNWFQQKPGEAPKLLIYATSTLQSGVPSRFSGSGYGTEFTLTISSLQPEDFATYYCQQSYTTPWTFGQGTKVEIKRTVAAPSVFIFPPSDEQLKSGTASVVCLLNNFYPREAKVQWKVDNALQSGNSQESVTEQDSKDSTYSLSSTLTLSKADYEKHKVYACEVTHQGLSSPVTKSFNRGEC
B3: binds (human VEGFR2-Fc [14]); binds (human PDL1-Fc [15]).

B4: BsAb (A11-B1A1)_30 (bispecific antibody, human IgG1, kappa, L234A L235A)
heavy: not shown
light: B3 light
B4: binds (human VEGFR2-Fc [14]); binds (human PDL1-Fc [15]).

B5: BsAb (A11-B1A1)_30cc (bispecific antibody, human IgG1, kappa, L234A L235A)
heavy: not shown
light: B3 light
notes: Variant of BsAb (A11-B1A1), apparently with the 30GS linker and an added disulfide bond in the scFv; also called BsAb (Al l-BlAl)_30cc
B5: binds (human VEGFR2-Fc [14]); binds (human PDL1-Fc [15]).

B6: BsAb (D7A8-B1A1) (bispecific antibody, human IgG1, lambda, L234A L235A)
heavy: not shown
light: QSALTQPASVSGSPGQSITISCTGTSSDVGAYNYVSWYQQHPGKAPKLMIYDVSNRPSGVSNRFSGSKSGNTASLTISGLQAEDEADYYCSSYTSSSTRVFGTGTKVTVLGQPKAAPSVTLFPPSSEELQANKATLVCLISDFYPGAVTVAWKADSSPVKAGVETTKPSKQSNNKYAASSYLSLTPEQWKSHRSYSCQVTHEGSTVEKTVAPTECS
B6: binds (human VEGFR2-Fc [14]); binds (human PDL1-Fc [15]).

B7: BsAb (D7A8-B1A1)_30 (bispecific antibody, human IgG1, lambda, L234A L235A)
heavy: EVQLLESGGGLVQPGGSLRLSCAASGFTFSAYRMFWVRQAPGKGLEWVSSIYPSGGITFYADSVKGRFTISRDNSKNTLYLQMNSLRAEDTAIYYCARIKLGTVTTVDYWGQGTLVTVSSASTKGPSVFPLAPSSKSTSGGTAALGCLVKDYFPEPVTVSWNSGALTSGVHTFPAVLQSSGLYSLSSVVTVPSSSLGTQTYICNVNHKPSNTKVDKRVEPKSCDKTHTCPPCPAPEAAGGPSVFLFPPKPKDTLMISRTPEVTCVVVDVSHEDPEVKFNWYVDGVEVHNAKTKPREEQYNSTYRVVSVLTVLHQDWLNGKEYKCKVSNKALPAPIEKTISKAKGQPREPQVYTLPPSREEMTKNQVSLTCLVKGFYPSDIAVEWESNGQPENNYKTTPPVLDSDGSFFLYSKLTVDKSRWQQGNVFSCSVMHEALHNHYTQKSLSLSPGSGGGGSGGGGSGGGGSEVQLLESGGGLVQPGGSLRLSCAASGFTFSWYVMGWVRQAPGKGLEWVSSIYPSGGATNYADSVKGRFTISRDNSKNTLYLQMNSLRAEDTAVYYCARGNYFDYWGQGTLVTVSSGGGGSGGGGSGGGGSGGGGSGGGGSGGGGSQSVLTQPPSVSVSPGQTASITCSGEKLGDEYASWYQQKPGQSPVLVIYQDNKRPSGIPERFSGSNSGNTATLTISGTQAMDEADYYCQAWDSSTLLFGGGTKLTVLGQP
light: B6 light
notes: Variant of BsAb (D7A8-B1A1), apparently with the 30GS linker
B7: binds (human VEGFR2-Fc [14]); binds (human PDL1-Fc [15]).

B8: BsAb (D7A8-B1A1)_30cc (bispecific antibody, human IgG1, lambda, L234A L235A)
heavy: not shown
light: B6 light
notes: Variant of BsAb (D7A8-B1A1), apparently with the 30GS linker and an added disulfide bond in the scFv; also called BsAb (D7A8-BlAl)_30cc
B8: binds (human VEGFR2-Fc [14]); binds (human PDL1-Fc [15]).

B9: BsAb (A1-A8)-LALA (bispecific antibody, human IgG1, lambda)
heavy: not shown
light: QSVLTQPPSVSVSPGQTASITCSGEKLGDEYASWYQQKPGQSPVLVIYQDNKRPSGIPERFSGSNSGNTATLTISGTQAMDEADYYCQAWDSSTLLFGGGTKLTVLGQPKAAPSVTLFPPSSEELQANKATLVCLISDFYPGAVTVAWKADSSPVKAGVETTKPSKQSNNKYAASSYLSLTPEQWKSHRSYSCQVTHEGSTVEKTVAPTECS
notes: LALA version: leucines 234 and 235 of the IgG1 CH2 mutated to alanine; also called bi-specific antibody A1-A8; A18
Binder B9 has an IC50 (human VEGFR2-Fc [1]) of 1.19 nM, a Kd (human PDL1-Fc [7]) of roughly 0.0032 nM and an IC50 (mouse PDL1-Fc [8]) of 3.2 nM. It also gave an EC50 (mouse PDL1-Fc [9]) of 0.16 nM, an EC50 (human VEGFR2-Fc [3]) of 0.128 nM and an EC50 (human PDL1-Fc [10]) of 0.088 nM. The EC50 [5] was 0.779 nM, the IC50 (human PDL1-Fc [11]) was 2.51 nM and the Kd (human VEGFR2-Fc [6]) was roughly 0.2 nM. The EC50 [12] was 0.113 nM and the EC50 [13] was 0.402 nM.
